B1: Adhesion G protein-coupled receptor B2 (Homo sapiens), O60241 (parent)
chain: MENTGWMGKGHRMTPACPLLLSVILSLRLATAFDPAPSACSALASGVLYGAFSLQDLFPTIASGCSWTLENPDPTKYSLYLRFNRQEQVCAHFAPRLLPLDHYLVNFTCLRPSPEEAVAQAESEVGRPEEEEAEAAAGLELCSGSGPFTFLHFDKNFVQLCLSAEPSEAPRLLAPAALAFRFVEVLLINNNNSSQFTCGVLCRWSEECGRAAGRACGFAQPGCSCPGEAGAGSTTTTSPGPPAAHTLSNALVPGGPAPPAEADLHSGSSNDLFTTEMRYGEEPEEEPKVKTQWPRSADEPGLYMAQTGDPAAEEWSPWSVCSLTCGQGLQVRTRSCVSSPYGTLCSGPLRETRPCNNSATCPVHGVWEEWGSWSLCSRSCGRGSRSRMRTCVPPQHGGKACEGPELQTKLCSMAACPVEGQWLEWGPWGPCSTSCANGTQQRSRKCSVAGPAWATCTGALTDTRECSNLECPATDSKWGPWNAWSLCSKTCDTGWQRRFRMCQATGTQGYPCEGTGEEVKPCSEKRCPAFHEMCRDEYVMLMTWKKAAAGEIIYNKCPPNASGSASRRCLLSAQGVAYWGLPSFARCISHEYRYLYLSLREHLAKGQRMLAGEGMSQVVRSLQELLARRTYYSGDLLFSVDILRNVTDTFKRATYVPSADDVQRFFQVVSFMVDAENKEKWDDAQQVSPGSVHLLRVVEDFIHLVGDALKAFQSSLIVTDNLVISIQREPVSAVSSDITFPMRGRRGMKDWVRHSEDRLFLPKEVLSLSSPGKPATSGAAGSPGRGRGPGTVPPGPGHSHQRLLPADPDESSYFVIGAVLYRTLGLILPPPRPPLAVTSRVMTVTVRPPTQPPAEPLITVELSYIINGTTDPHCASWDYSRADASSGDWDTENCQTLETQAAHTRCQCQHLSTFAVLAQPPKDLTLELAGSPSVPLVIGCAVSCMALLTLLAIYAAFWRFIKSERSIILLNFCLSILASNILILVGQSRVLSKGVCTMTAAFLHFFFLSSFCWVLTEAWQSYLAVIGRMRTRLVRKRFLCLGWGLPALVVAVSVGFTRTKGYGTSSYCWLSLEGGLLYAFVGPAAVIVLVNMLIGIIVFNKLMARDGISDKSKKQRAGSERCPWASLLLPCSACGAVPSPLLSSASARNAMASLWSSCVVLPLLALTWMSAVLAMTDRRSVLFQALFAVFNSAQGFVITAVHCFLRREVQDVVKCQMGVCRADESEDSPDSCKNGQLQILSDFEKDVDLACQTVLFKEVNTCNPSTITGTLSRLSLDEDEEPKSCLVGPEGSLSFSPLPGNILVPMAASPGLGEPPPPQEANPVYMCGEGGLRQLDLTWLRPTEPGSEGDYMVLPRRTLSLQPGGGGGGGEDAPRARPEGTPRRAAKTVAHTEGYPSFLSVDHSGLGLGPAYGSLQNPYGMTFQPPPPTPSARQVPEPGERSRTMPRTVPGSTMKMGSLERKKLRYSDLDFEKVMHTRKRHSELYHELNQKFHTFDRYRSQSTAKREKRWSVSSGGAAERSVCTDKPSPGERPSLSQHRRHQSWSTFKSMTLGSLPPKPRERLTLHRAAAWEPTEPPDGDFQTEV

Variants of: B1
Conditions: with gnaz_human GNAZ

Row | Variant | effect of a mutation on the interaction
1 | R1465W | with no effect

Variants of: B1
Conditions: with gnai1_human GNAI1, P63096
gnai1_human GNAI1, P63096, sequence (P63096 whole entry): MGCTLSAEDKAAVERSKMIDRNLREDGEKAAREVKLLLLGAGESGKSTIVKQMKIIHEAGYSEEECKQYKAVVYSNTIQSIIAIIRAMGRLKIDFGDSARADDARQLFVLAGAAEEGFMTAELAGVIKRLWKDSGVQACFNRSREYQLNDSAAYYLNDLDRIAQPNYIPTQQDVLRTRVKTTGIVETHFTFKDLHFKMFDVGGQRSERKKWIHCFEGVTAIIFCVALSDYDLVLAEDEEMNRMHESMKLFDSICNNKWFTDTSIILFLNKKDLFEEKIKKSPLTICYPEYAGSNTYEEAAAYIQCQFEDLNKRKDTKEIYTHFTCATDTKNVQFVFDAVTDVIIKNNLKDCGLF

Row | Variant | effect of a mutation on the interaction
2 | R1465W | causing an interaction

Variants of: B1
Conditions: with arrb2_rat Arrb2, P29067
arrb2_rat Arrb2, P29067, sequence (P29067 whole entry): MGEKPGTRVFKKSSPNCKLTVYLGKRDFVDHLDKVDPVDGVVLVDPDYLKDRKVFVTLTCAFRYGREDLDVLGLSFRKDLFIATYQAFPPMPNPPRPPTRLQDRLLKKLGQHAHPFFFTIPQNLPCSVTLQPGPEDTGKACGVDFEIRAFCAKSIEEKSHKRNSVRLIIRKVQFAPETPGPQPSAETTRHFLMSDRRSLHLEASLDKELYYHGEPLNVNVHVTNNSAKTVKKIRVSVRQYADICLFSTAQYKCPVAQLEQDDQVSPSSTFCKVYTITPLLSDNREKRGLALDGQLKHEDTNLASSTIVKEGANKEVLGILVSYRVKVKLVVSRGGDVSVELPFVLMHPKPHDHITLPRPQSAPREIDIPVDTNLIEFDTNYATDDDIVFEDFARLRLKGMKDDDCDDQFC

Row | Variant | effect of a mutation on the interaction
3 | R1465W | with no effect

Variants of: B1
Conditions: with sh3g2_human SH3GL2, Q99962
sh3g2_human SH3GL2, Q99962, sequence (Q99962 whole entry): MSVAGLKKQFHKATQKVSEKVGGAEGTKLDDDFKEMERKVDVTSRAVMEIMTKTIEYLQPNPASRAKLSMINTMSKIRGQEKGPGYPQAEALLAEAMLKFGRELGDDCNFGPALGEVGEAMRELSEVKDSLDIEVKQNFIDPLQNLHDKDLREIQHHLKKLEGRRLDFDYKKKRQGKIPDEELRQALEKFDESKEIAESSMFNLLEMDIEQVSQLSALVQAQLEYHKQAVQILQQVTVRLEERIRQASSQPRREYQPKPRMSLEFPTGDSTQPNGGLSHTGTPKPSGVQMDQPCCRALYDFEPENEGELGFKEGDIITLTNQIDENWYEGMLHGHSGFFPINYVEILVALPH

Row | Variant | effect of a mutation on the interaction
4 | R1465W | disrupting interaction strength
